Laboratory results as given in patent US20240254227A1.

Assays:
[1] = biological target: CD300A/C/D/E/G (pool of five stable Freestyle HEK cell lines expressing huCD300A, huCD300C, huCD300D, huCD300E and huCD300G); assay: flow cytometry, pooled stable Freestyle HEK cells
[2] = biological target: cynomolgus monkey CD300LB transiently expressed on HEK293 cells (cynomolgus monkey); assay: flow cytometry, transfected HEK293, 10 ug/mL, isotype subtracted
[3] = biological target: huCD300F constitutively expressed on 293 Freestyle (Freestyle HEK) cells (human) (UniProt Q8TDQ1); assay: flow cytometry, stable Freestyle HEK cells
Chain of huCD300F constitutively expressed on 293 Freestyle (Freestyle HEK) cells (human) (Q8TDQ1 other isoform, or with tags, fused parts or gaps): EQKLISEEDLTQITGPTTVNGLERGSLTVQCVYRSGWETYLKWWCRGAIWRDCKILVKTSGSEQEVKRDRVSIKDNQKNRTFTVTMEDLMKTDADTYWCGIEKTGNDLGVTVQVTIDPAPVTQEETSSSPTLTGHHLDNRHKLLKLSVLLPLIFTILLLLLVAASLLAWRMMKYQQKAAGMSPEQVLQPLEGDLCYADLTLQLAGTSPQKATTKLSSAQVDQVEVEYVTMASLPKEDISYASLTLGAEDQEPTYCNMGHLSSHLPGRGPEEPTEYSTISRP

[4] = biological target: murine CD300C-Fc (mouse); assay: SPR (Carterra LSA), antibody immobilised, Fc fusion at 300 or 600 nM
Chain of murine CD300C-Fc (mouse) (chain, as listed by the source limits assumed): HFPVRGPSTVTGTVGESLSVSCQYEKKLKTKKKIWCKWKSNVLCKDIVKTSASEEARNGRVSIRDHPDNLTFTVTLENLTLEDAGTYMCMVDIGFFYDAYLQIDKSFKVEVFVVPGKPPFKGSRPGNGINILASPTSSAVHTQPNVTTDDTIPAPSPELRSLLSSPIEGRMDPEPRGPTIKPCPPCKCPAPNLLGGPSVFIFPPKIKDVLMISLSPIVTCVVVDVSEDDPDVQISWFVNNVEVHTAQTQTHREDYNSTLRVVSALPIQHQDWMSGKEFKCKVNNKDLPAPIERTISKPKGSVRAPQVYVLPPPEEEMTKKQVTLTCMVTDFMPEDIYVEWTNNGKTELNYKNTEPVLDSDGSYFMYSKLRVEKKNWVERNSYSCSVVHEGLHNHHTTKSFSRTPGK

[5] = biological target: recombinant human CD300LB overexpressed on Jurkat cells (human) (UniProt A8K4G0); assay: flow cytometry, stable Jurkat cells, supernatant or 10 ug/mL, isotype subtracted
Chain of recombinant human CD300LB overexpressed on Jurkat cells (human) (A8K4G0 18-201 limits assumed): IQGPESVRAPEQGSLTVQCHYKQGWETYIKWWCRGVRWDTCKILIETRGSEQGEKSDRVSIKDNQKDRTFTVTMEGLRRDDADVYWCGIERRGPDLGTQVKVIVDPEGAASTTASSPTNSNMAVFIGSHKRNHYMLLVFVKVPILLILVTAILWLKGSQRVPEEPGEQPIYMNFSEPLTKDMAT

[6] = biological target: murine CD300LB-Fc (mouse); assay: SPR (Carterra LSA), antibody immobilised, Fc fusion at 300 or 600 nM
Chain of murine CD300LB-Fc (mouse) (chain, as listed by the source limits assumed): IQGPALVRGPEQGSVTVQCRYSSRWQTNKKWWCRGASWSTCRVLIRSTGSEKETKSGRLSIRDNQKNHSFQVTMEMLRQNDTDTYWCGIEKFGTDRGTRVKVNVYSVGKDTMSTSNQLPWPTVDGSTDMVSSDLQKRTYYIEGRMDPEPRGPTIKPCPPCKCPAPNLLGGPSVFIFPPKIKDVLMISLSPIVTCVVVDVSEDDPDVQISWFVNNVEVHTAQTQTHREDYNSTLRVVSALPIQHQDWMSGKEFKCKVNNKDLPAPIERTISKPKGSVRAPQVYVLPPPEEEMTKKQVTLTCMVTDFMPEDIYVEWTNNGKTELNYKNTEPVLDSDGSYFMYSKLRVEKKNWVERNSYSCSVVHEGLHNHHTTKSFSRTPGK

Chain of cynomolgus monkey CD300LB transiently expressed on HEK293 cells (cynomolgus monkey) (chain, as listed by the source limits assumed, form in doubt): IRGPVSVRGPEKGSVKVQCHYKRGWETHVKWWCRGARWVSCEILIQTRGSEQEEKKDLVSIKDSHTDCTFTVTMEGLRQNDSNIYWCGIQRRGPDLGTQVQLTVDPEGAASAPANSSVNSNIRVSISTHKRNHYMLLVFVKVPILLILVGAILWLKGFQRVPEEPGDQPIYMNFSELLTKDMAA

gMFI [1] [gMFI]	gMFI [2] [gMFI]	Binder	further results
166	-43.5	anti-CD300LB antibody CD-08 (antibody, V domains shown) VH: EVQLLESGGGLVQPGGSLRLSCAASGFTFSNAWMSWVRQAPGKGLEWVSVISGSGGRTYYADSVKGRFTISRDNSKNTLYLQMNSLRAEDTAVYYCARDGTTVAPKGMDVWGQGTTVTVSS VL: DIQMTQSPSSLSASVGDRVTITCQASQDINNYVNWYQQKPGKAPKLLIYAASNLQSGVPSRFSGSGSGTDFTLTISSLQPEDFATYYCQQSYSPPYTFGQGTKLEIK	
-21.5	190	anti-CD300LB antibody CD-01 (antibody, V domains shown) VH: RVQLQQSGAELVRPGASVTLSCKASGFTFTDFEMHWVKKTPVHGLEWIGAIDPESGNTAYNQKFRGKATLTADKSSSTAYMELRYLTSEDSAVYYCTPLISGADYWGQGTTLTVSS VL: DVVMTQSPLSLPVSLGDQASISCRSSQSLVHSDGNTYLYWYLQKPGQSPKLLIYKVSNRFSGVPDRFSGSGSGTDFTFKISRVGAEDLGVYFCSQSTHVPWTFGGGTKLEII	
52.5	72.2	anti-CD300LB antibody CD-04 (antibody, V domains shown) VH: QVQLQQSGAELVRPGASVTLSCRASGYTFTDFEMHWVKQTPLHGLEWIGAIAPETGGTAYNQKFKGKAILTADKSSSTAYVELRSLTSEDSAVYFCTRLGGMDYWGQGTSVTVSS VL: DVVMTQTPLSLPVSLGDQASISCRSSQTLVHNNGNTYLYWYLQKPGQSPKLLIYQVSNRFFGVPDRFSGSGSGTDFTLKISRVEAEDLGLYFCSQSTHVPWTFGGGTKLEIK	gMFI [3]: 163 gMFI
		anti-CD300LB antibody CD-10 (antibody, V domains shown) VH: QVQLQQSGPELVRPGVSVKISCKGSGYTFTDYAMHWVKQSHVRSREWIGVIGTYNGHTNYNQKFKGKATMTVDKSSSTAYLELARLTSEDSAIYYCARSGSYYYSMDYWGQGTSVTVSS VL: QIVLTQSPAIMSASPGEKVTMTCSASSSVNYMHWYQQKSGTSPKRWIYDTSKLSSGVPARFSGSGSGTSYSLTISTMEAEDAATYYCQQWSSNPPMTFGGGTKLEIK	SPR binding (control subtracted) [4]: 11.8
		anti-CD300LB antibody CD-11 (antibody, V domains shown) VH: QIQLVQSGPEVKKPGETVKISCKASGYTLTDYSMHWVMQTPGTGLKWMAWMNTETGEPTYADDFKGRFAFSLETSAGTAYLQIDNLKNEDTATYFCATYGKSYGMKYWGQGTSVTVSS VL: DIVLTQSPPSLAVSLGQRATISCRATKSVSPYLHWYQQTPGQPPKLLIYLASNLDSGVPARFSGSGSGTDFTLNIHPVEEEDAATYYCQHNKELPPTFGGGTRLEIK	SPR binding (control subtracted) [4]: 37.8
		anti-CD300LB antibody CD-15 (antibody, V domains shown) VH: QIQLVQSGPELKKPGETVKISCQVSGYTFTDYSMHWLKQAPGKGLKWMAWINTETGESTYTDEFKGRFVFSLETSVRTAYLKINNLKNEDTATYFCGTYGSSYGMAYWGQGTSVTVSS VL: DIVLTQSPASLPVSLGQRATISCRASKSVSTSGSSYLHWYQQKPGQPPKLLIYLASKLESGVPARFRGSGSGTDFTLNIHPVEEEDAATYYCQHNREVPPTFGGGTKLEIK	gMFI [5]: 22 gMFI
		anti-CD300LB antibody CD-16 (antibody, V domains shown) VH: QIQLVQSGPELKKPGETVKISCKASGYTFTDYSMHWVKQAPGKGLKWMAWINTETGEPTYADDFRGRFAFSLETSGRTAYLEINNLRNEDTATYFCVTYGSSYGMAYWGQGTSVTVSS VL: DIVLTQSPASLAVSLGQRATISCRASKSVSRSGYSYLHWYQQKPGQPPKLLIYLASKLESGVPARFSGSGSGTDFTLNIHPVEAEDAATYYCQHNREIPPTFGGGTKLEIK	gMFI [5]: 31 gMFI
2510	-62.5	anti-CD300LB antibody CD-05 (antibody, V domains shown) VH: QVQLVQSGAEVKKPGASVKVSCKASGYTFSRYYINWVRQAPGQGLEWMGWINPNSGGTNYAQKFQGRVTMTRDTSTSTVYMELSSLRSEDTAVYYCTTDQLRFGKTGPYYGMDVWGQGTTVTVSS VL: DIQMTQSPSSLSASVGDRVTITCRASQNIGTYLNWYQQKPGKAPKLLIYAASSLQSGVPSRFSGSGSGTDFTLTISSLQPEDFATYYCQQSYSDTLTFGGGTKVEIK	SPR binding (control subtracted) [6]: 3.65
779	-51	anti-CD300LB antibody CD-06 (antibody, V domains shown) VH: QVQLVQSGAEVKKPGASVKVSCKASGYTFTTYAVHWVRQAPGQGLEWMGIVNPNSGGTNYAQKFQGRVTMTRDTSTSTVYMELSSLRSEDTAVYYCARDIVPMNNFYNYYYGMDVWGQGTTVTVSS VL: DIQMTQSPSSLSASVGDRVTITCRASQSISSYLNWYQQKPGKAPKLLIYATSTLQSGVPSRFSGSGSGTDFTLTISSLQPEDFATYYCQQSYRIPYTFGQGTKVEIK	
-25.5	-19.5	anti-CD300LB antibody CD-09 (antibody, V domains shown) VH: QVQLVQSGAEVKKPGASVKVSCKASGYTFTTYAVHWVRQAPGQGLEWMGIINPNSGGTNYAQKFQGRVTMTRDTSTSTVYMELSSLRSEDTAVYYCARDIVPMNNFYNYYYGMDVWGQGTTVTVSS VL: DIQMTQSPSSLSASVGDRVTITCRASQSISSYLNWYQQKPGKAPKLLIYATSTLQSGVPSRFSGSGSGTDFTLTISSLQPEDFATYYCQQSYRIPYTFGQGTKVEIK	
42.5	39	anti-CD300LB antibody CD-07 (antibody, V domains shown) VH: QVQLVQSGAEVKKPGASVKVSCKASGYTFTNYRMHWVRQAPGQGLEWMGWINPNSGGTIYAQKFQGRVTMTRDTSTSTVYMELSSLRSEDTAVYYCARDLDYWGQGTLVTVSS VL: DIQMTQSPSSLSASVGDRVTITCQASQDISNYLNWYQQKPGKAPKLLIYGASSLQSGVPSRFSGSGSGTDFTLTISSLQPEDFATYYCQQSYSTPWTFGPGTKVEIK	
